Results taken from US20190194323A1 (ALLAKOS, published 2019).

Columns and labels:
[1] = biological target: Siglec-7 on primary human cells (NK cells, CD8+ tumor-infiltrating T cells) (human) (UniProt Q9Y286)
[2] = biological target: Siglec-7 on primary human cells (NK cells, CD8+ tumor-infiltrating T cells) (human) (UniProt Q9Y286); remark: listed apart in the source
Siglec-7-ECD [3] = biological target: T1, Siglec-7-ECD (human, UniProt Q9Y286 19-353); experiment: bio-layer interferometry (ForteBio): antibody captured on the sensor, Siglec-7-ECD as analyte, 1:1 global fit
T1 construct: also called p75; AIRM
T1 sequence (Q9Y286 19-353 limits assumed): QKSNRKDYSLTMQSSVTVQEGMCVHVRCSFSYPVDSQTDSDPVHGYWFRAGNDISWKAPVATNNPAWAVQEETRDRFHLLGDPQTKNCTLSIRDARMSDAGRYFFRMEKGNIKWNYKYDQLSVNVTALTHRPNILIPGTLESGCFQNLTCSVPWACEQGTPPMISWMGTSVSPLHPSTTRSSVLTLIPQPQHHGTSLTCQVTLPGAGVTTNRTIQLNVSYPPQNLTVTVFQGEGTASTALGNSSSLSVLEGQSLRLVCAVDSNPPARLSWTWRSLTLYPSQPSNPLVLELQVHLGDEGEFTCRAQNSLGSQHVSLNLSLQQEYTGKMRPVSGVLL
Description: A panel of antibodies was evaluated for binding to Siglec-7. The results identified anti-Siglec-7 antibodies that have improved KD values compared to commercially available anti-Siglec-7 antibodies (FIG. 7).
Antibody binding analysis was carried out by bio-layer interferometry (ForteBio). […] Antibodies were captured on anti-mouse kinetic sensors at 0.5 ug/mL; Siglec-7-ECD was used as analyte and diluted in assay buffer from 50 nM to 1.56 nM with 2× dilutions. Two-minute associations were conducted, followed by 10-minute dissociations. Results were determined relative to a control empty reference AHC sensor, and analyzed using ForteBio analysis software with 1:1 global fit parameters.

Siglec-7-ECD [4] = biological target: T1, Siglec-7-ECD; experiment: value quoted in the legend box of the internalization graph; same value as in the Figure 7 table (bio-layer interferometry)
Siglec-7-ECD-Fc = biological target: T2, Siglec-7-ECD-Fc (human, UniProt Q9Y286 19-353); experiment: ligand blocking on cells, flow cytometry: antibody dilutions pre-mixed with 10 nM Siglec-7-ECD-Fc, then binding of Siglec-7-ECD-Fc to Siglec-7 ligands on A375 melanoma cells
T2 construct: also called recombinant Siglec-7-Fc fusion protein; Siglec-7-Fc; not shown: human Fc (huFc)
T2 sequence (Q9Y286 19-353): as the sequence (Q9Y286 19-353 limits assumed) above
Description: Recombinant Siglec-7-Fc was added to A375 cells in the presence of anti-Siglec-7 antibodies at increasing concentrations and binding of the complex was detected on the cell surface.
Human melanoma cell line A375, which expresses high level of ligands for Siglec-7, was used to determine the blocking activity of anti-Siglec-7 antibodies in a cell based assay. Two-fold serial dilutions of anti-Siglec-7 antibodies (40 nM to 40 pM) were combined with 10 nM Siglec-7-ECD-Fc in FACS buffer (PBS/2% BSA) and incubated on ice for 30 minutes. 2.5×10e4 A375 cells per well were added to round bottom 96-well tissue culture plates in FACS buffer, plates were centrifuged at 400 g for 2 min, supernatant was removed and cells were re-suspended in 100 ul of the antibody-Siglec-7 complexes. After a 1 hour incubation on ice, cells were washed twice and incubated for 30 minutes with goat anti-human F(ab′)₂ fragment conjugated to AF647 (Jackson IR labs) at 1 ug/ml in FACS buffer. After two more washes, cells were fixed in PBS/2% PFA and acquired on a Novocyte flow cytometer (ACEA biosciences). IC₅₀ values for blocking were determined based on plotting mean fluorescence in the APC channel and analysis using Prism Graphpad software.

[5] = biological target: T3, Siglec-7 on primary human cells (NK cells, CD8+ tumor-infiltrating T cells) (human, UniProt Q9Y286 19-467); experiment: cell-based or functional assay
T3 sequence (Q9Y286 19-467 limits assumed): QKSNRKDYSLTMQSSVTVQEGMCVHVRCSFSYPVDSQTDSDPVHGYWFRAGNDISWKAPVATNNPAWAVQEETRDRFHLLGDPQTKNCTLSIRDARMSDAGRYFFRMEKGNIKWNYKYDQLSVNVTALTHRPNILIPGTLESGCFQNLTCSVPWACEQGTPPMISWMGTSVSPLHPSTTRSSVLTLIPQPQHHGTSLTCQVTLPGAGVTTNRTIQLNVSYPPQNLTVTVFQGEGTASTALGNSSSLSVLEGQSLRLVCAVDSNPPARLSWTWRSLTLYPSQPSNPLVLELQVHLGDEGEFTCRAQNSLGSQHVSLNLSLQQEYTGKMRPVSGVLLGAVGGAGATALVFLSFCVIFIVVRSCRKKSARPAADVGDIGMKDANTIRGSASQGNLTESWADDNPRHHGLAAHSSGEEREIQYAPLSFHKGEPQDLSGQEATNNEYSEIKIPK

[6] = biological target: T3, Siglec-7 on primary human cells (NK …); experiment: cell-based or functional assay; remark: listed apart in the source
Siglec-7-ECD [7] = biological target: T1, Siglec-7-ECD; experiment: monovalent Fab; bio-layer interferometry (ForteBio) per Methods
Siglec-7-ECD [8] = biological target: T1, Siglec-7-ECD; experiment: monovalent Fab; bio-layer interferometry (ForteBio) per Methods; No. 12 of Table 1 (second entry of the pair; No. 2 gives 250-500)
Siglec-7-ECD [9] = biological target: T1, Siglec-7-ECD; experiment: monovalent Fab; bio-layer interferometry (ForteBio) per Methods; lower end of the range 250-500; No. 20 of Table 1
Siglec-7-ECD [10] = biological target: T1, Siglec-7-ECD; experiment: monovalent Fab; bio-layer interferometry (ForteBio) per Methods; upper end of the range 250-500; No. 20 of Table 1
Siglec-7-ECD [11] = biological target: T1, Siglec-7-ECD; experiment: monovalent Fab; bio-layer interferometry (ForteBio) per Methods; No. 13 of Table 1 (second entry of the pair; No. 6 also gives >500)

Chain of Siglec-7 on primary human cells (NK cells, CD8+ tumor-infiltrating T cells) (human) (Q9Y286 19-467 limits assumed): as above

Kd (Siglec-7-ECD [3]) | Kd (Siglec-7-ECD [4]) | IC50 (Siglec-7-ECD-Fc) | Kd (Siglec-7-ECD [7]) | Molecule | other results
– | – | – | > 0.5 nM | humanized 16H11-derived Fab, VH AK417-17 / VL AK435-7 (Fab, V domains shown, Measured as monovalent Fab; also called No. 14; No. 20) VH: QVQLVQSGAEVKKPGSSVKVSCKASGYDFSNFWMNWVRQAPGQGLEWMGGIYPGDGEINYAQKFQGRVTITADESTSTAYMELSSLRSEDTAVYYCARDDYLRAMDIWGQGTMVTVSS VL: DIQMTQSPSSLSASVGDRVTITCRASQNIHNYLAWYQQKPGKAPKFLLYSAKRLEDGVPSRFSGSGSGTDYTLTISSLQPEDFATYYCQHFWSSPYTFGGGTKVEIK | Kd (Siglec-7-ECD [9]): ≥ 0.25 nM; Kd (Siglec-7-ECD [10]): ≤ 0.5 nM
– | – | – | > 0.5 nM | humanized 16H11-derived Fab, VH AK417-17 / VL AK419-2 (Fab, V domains shown, Measured as monovalent Fab; also called No. 6; No. 13) VH: QVQLVQSGAEVKKPGSSVKVSCKASGYDFSNFWMNWVRQAPGQGLEWMGGIYPGDGEINYAQKFQGRVTITADESTSTAYMELSSLRSEDTAVYYCARDDYLRAMDIWGQGTMVTVSS VL: DIQMTQSPSSLSASVGDRVTITCRASQNIHNYLAWYQQKPGKAPKFLLYSAKRLESGVPSRFSGSGSGTDYTLTISSLQPEDFATYYCQHFWSSPYTFGGGTKVEIK | Kd (Siglec-7-ECD [11]): > 0.5 nM

The remaining lines, values behind:

Molecule | Kd (Siglec-7-ECD [3]) | Kd (Siglec-7-ECD [4]) | IC50 (Siglec-7-ECD-Fc) | Kd (Siglec-7-ECD [7]) | other results
anti-Siglec-7 antibody clone S7.7 (BioLegend) | 0.422 nM | 0.422 nM | 4.26 nM | – | IC50 of Siglec-7 internalization on NK cells (24 h, PBMC; remaining surface Siglec-7 stained with 4B12-AF647) [1]: 0.469 nM; IC50 (read off the curve) [2]: 0.07 µg/mL
monoclonal antibody 3F1 (antibody, V domains shown) VH: EFQLQQSGPEMVKPGASVKMSCKASGDSFTDYKINWVKQNNGKSLEWIGVINPDSGTTSYNQIFEGKATLTVDQSSSTAYMQVNRLTSEDSAVYYCTTWDDYSFYAMDYWGQGTSVTVSS VL: DVLMTQTPLSLPVSLGDQASISCRSSQNIVHSNGNTYLEWFLQKPGQSPKLLIYKVSNRFSGVPDRFSGSGSGTDFTLKISRVEAEDLGVYYCFQGSHIPWTFGGGTKLEIK | 0.041 nM | 0.041 nM | 8.5 nM | – | IC50 of Siglec-7 internalization on NK cells (24 h, PBMC; remaining surface Siglec-7 stained with 4B12-AF647) [5]: 0.013 nM; IC50 (read off the curve) [6]: ~0.001 µg/mL
humanized 16H11-derived Fab, VH AK417-17 / VL AK418-2 (Fab, V domains shown, Measured as monovalent Fab; also called No. 2; No. 12) VH: QVQLVQSGAEVKKPGSSVKVSCKASGYDFSNFWMNWVRQAPGQGLEWMGGIYPGDGEINYAQKFQGRVTITADESTSTAYMELSSLRSEDTAVYYCARDDYLRAMDIWGQGTMVTVSS VL: DIQMTQSPSSLSASVGDRVTITCRASGNIHNYLAWYQQKPGKAPKFLLYSAKRLESGVPSRFSGSGSGTDYTLTISSLQPEDFATYYCQHFWSSPYTFGGGTKVEIK | – | – | – | 0.25 to 0.5 nM | Kd (Siglec-7-ECD [8]): > 0.5 nM
